Laboratory results reported in patent publication US20220177604A1.

What was measured:
[1] = biological target: human immunoglobulin E (hIgE) (human) (UniProt P01854); assay: SPR competition
[2] = biological target: human IgE pre-bound on human basophils (human) (UniProt P01854); assay: cell-based or functional assay
[3] = biological target: human immunoglobulin E (hIgE) (human) (UniProt P01854); assay: SPR competition, hIgE over hFcεRIα chip, pH 5.5
[4] = biological target: human immunoglobulin E (hIgE) (human) (UniProt P01854); assay: SPR competition, hIgE over hFcεRIα chip, pH 7.4
[5] = biological target: human immunoglobulin E (hIgE) (human) (UniProt P01854); assay: competition ELISA, hIgE to coated hFcεRIα, pH 6
[6] = biological target: human immunoglobulin E (hIgE) (human) (UniProt P01854); assay: SPR competition, hIgE over hFcεRIα chip, pH 7.4; remark: listed apart in the source
[7] = biological target: human immunoglobulin E (hIgE) (human) (UniProt P01854); assay: competition ELISA, hIgE to coated hFcεRIα, pH 7.4
[8] = biological target: human immunoglobulin E (hIgE) (human) (UniProt P01854); assay: SPR competition, hIgE over hFcεRIα chip, pH 6 (text: pH 5.5)
[9] = biological target: human immunoglobulin E (hIgE) (human) (UniProt P01854); assay: flow cytometry: inhibition of human IgE binding to hFcεRIα+ bone-marrow-derived mast cells, residual IgE staining (MFI); unit inferred, x axis in µg/ml
[10] = biological target: human immunoglobulin E (hIgE) (human) (UniProt P01854); assay: flow cytometry: inhibition of human IgE binding to hFcεRIα+ bone-marrow-derived mast cells, residual IgE staining (MFI); table head on the sheet reads EC50, the text calls the values IC50; no unit in the table, x axis in µg/ml
[11] = biological target: human immunoglobulin E (hIgE) (human) (UniProt P01854); assay: competition ELISA
[12] = biological target: human immunoglobulin E (hIgE) (human) (UniProt P01854); assay: SPR competition, hIgE + mAb over hFcεRIα chip, pH 7.4
[13] = biological target: human immunoglobulin E (hIgE) (human) (UniProt P01854); assay: competition ELISA, biotin-hIgE to coated hFcεRIα, pH 6
[14] = biological target: human immunoglobulin E (hIgE) (human) (UniProt P01854); assay: competition ELISA, biotin-hIgE to coated hFcεRIα, pH 7.4
[15] = biological target: human immunoglobulin E (hIgE) (human) (UniProt P01854); assay: SPR competition, hIgE + mAb over hFcεRIα chip, pH 6 (text: pH 5.5)
[16] = biological target: recombinant Motavizumab human IgE (rMota-hIgE) (human) (UniProt P01854); assay: hIgE binding ELISA
Chain of recombinant Motavizumab human IgE (rMota-hIgE) (human) (P01854 other isoform, or with tags, fused parts or gaps limits assumed, form in doubt): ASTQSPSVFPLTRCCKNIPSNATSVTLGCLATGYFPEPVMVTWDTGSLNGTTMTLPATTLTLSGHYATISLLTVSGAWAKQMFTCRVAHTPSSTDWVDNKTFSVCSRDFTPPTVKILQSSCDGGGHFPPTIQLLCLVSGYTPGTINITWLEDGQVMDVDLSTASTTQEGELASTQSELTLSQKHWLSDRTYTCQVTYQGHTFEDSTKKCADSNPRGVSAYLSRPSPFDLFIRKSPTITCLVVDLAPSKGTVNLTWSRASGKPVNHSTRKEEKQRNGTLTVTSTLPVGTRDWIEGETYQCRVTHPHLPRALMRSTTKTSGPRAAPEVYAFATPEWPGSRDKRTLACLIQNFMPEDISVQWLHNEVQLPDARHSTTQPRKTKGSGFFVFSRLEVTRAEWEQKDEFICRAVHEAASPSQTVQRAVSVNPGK

Chain of human IgE pre-bound on human basophils (human) (P01854 whole entry, chain 1 of 2): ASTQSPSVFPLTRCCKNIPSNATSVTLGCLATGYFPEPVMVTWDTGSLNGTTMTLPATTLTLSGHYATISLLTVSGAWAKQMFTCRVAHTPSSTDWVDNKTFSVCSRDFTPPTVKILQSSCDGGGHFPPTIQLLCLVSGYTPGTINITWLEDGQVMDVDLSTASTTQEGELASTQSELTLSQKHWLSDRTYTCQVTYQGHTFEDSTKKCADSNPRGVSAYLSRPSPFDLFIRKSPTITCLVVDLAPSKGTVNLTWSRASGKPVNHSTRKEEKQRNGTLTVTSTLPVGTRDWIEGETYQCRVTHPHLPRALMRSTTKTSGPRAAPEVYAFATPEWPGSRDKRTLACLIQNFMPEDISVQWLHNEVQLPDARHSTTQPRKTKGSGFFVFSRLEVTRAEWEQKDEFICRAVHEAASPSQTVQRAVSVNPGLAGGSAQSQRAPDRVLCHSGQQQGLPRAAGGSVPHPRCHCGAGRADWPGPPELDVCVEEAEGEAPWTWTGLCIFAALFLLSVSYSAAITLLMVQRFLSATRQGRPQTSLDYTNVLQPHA
Chain of human IgE pre-bound on human basophils (human) (P12319 26-257, chain 2 of 2, further chain): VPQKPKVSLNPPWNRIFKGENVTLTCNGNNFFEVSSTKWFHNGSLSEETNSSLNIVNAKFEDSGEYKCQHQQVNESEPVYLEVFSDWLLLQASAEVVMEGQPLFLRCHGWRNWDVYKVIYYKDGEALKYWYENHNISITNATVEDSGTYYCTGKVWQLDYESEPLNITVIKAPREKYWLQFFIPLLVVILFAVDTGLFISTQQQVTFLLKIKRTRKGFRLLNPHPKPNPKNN
Chain of human immunoglobulin E (hIgE) (human) (P01854 whole entry): as the sequence (P01854 whole entry, chain 1 of 2) above

Binder | % CD63+ basophils at 20 µg/mL [2] | % CD63+ basophils at 100 µg/mL [2] | % of activated basophils (CCR3+CD63+) [2] | IC50 [5] | IC50 [6] | IC50 [7] | IC50 [8] | IC50 [10] | Ratio OD450 pH 7.4/pH 6 [16] | also measured
18B9His-hIgG1-WT (antibody, V domains shown) VH: QVQLVESGGGLVQPGGSLRLSCAASGFTFSSYVMSWVRQAPGKGLEWVSSIYSDGSHTYYADSVKGRFTISRDNAKNTLYLQMNSLKSEDTAVYYCAKNLEHYSGSYYYTDPRYDYWGQGTQVTVSS VL: SSALTQPSALSVTLGQTAKITCQGGSLGSSYVHWYQQKPGQAPVLVIHDGDSRPSGIPERFSGSSSGGTATLTISGAQAEDEDDYYCQSADSSGNAVFGGGTHLTVL | 12.6% | 37% | 32% | 3.02 µg/mL | 2.7 µg/mL | 0.19 µg/mL | 58.5 µg/mL |  |  | ratio between IC50 at pH5.5 and pH 7.4 [1]: 5.4; SI (Stimulation Index) at 20 µg/mL [2]: 5.48; SI (Stimulation Index) at 100 µg/mL [2]: 16.1; IC50 [3]: 4.06 µg/mL; IC50 [4]: 0.749 µg/mL; IC50 [9]: 3.89 µg/mL
18B9His-hIgG1-ABDEG (antibody, V domains shown) VH: QVQLVESGGGLVQPGGSLRLSCAASGFTFSSYVMSWVRQAPGKGLEWVSSIYSDGSHTYYADSVKGRFTISRDNAKNTLYLQMNSLKSEDTAVYYCAKNLEHYSGSYYYTDPRYDYWGQGTQVTVSS VL: SSALTQPSALSVTLGQTAKITCQGGSLGSSYVHWYQQKPGQAPVLVIHDGDSRPSGIPERFSGSSSGGTATLTISGAQAEDEDDYYCQSADSSGNAVFGGGTHLTVL |  |  | 29% | 2.55 µg/mL | 2.9 µg/mL | 0.13 µg/mL | 52.9 µg/mL |  |  | IC50 [9]: 4.16 µg/mL
13E4-hIgG1-ABDEG (antibody, V domains shown) VH: ELQLVESGGGLVQPGGSLRLSCAASGFTFSSYVMSWVRQAPGKGLEWVSSIYHDGSHTYYADFVKGRFTISRDNAKNTLYLQMNSLKSEDTAVYYCASGTSYSGSYYYTDPFFGSWGQGTQVTVSS VL: HSAVTQPSALSVTLGQTAKITCQGGSLGSNYAYWYQQKPGQAPVLVIYDDDSRPSGIPERFSGSSSGGTATLTISGAQAEDEGDYYCQSADSNGNAVFGGGTHLTVL | 61.3% | 68.6% | 17% | 0.0106 µg/mL | 3 µg/mL | 0.0065 µg/mL | 3.2 µg/mL | 1.36 µg/mL |  | 
13E4-hIgG1-WT (antibody, V domains shown) VH: ELQLVESGGGLVQPGGSLRLSCAASGFTFSSYVMSWVRQAPGKGLEWVSSIYHDGSHTYYADFVKGRFTISRDNAKNTLYLQMNSLKSEDTAVYYCASGTSYSGSYYYTDPFFGSWGQGTQVTVSS VL: HSAVTQPSALSVTLGQTAKITCQGGSLGSNYAYWYQQKPGQAPVLVIYDDDSRPSGIPERFSGSSSGGTATLTISGAQAEDEGDYYCQSADSNGNAVFGGGTHLTVL |  |  | 18% | 0.0114 µg/mL | 2.3 µg/mL | 0.00681 µg/mL | 2.5 µg/mL | 1.44 µg/mL |  | Ratio pH 6/7.4 (IC50) [1]: 1; Ratio pH 6/7.4 (IC50) [11]: 1.2; IC50 [12]: 1.62 nM; IC50 [13]: 12.9 nM; IC50 [14]: 10.3 nM; IC50 [15]: 1.54 nM
18E2VLHis-ABDEG (antibody, V domains shown) VH: QLQLVESGGGLVQPGGSLRLSCAASGFTFSSYVMSWVRQAPGKGLEWVSSIYHDGSHTYYADFVKGRFTISRDNAKNTLYLQMNSLKSEDTAVYYCASGTSYSGSYYYTDPFFGSWGQGTQVTVSS VL: NFMLTQPSALSVTLGQTARITCQGDRLGSRYIHWYQQKPPQAPVLVIHDDDRRPSGIPERFSGSSSGGTATLTISGAQAEDDGDYYCQSADSSGNPVFGGGTHLTVL | 3.7% | 3.1% |  |  |  |  |  |  |  | SI (Stimulation Index) at 20 µg/mL [2]: 1.48; SI (Stimulation Index) at 100 µg/mL [2]: 1.24
18E2His2-hIgG1-WT (antibody, V domains shown) VH: QLQLVESGGGLVQPGGSLRLSCAASGFTFSSYVMHWVRQAPGKGLEWVSSIYHDGSHTYYADFVKGRFTISRDNAKNTLYLQMNSLKSEDTAVYYCASGTSYSGSYYYTDPFFGSWGQGTQVTVSS VL: NFMLTQPSALSVTLGQTARITCQGDRLGSRYIHWYQQKPPQAPVLVIHDDDRRPSGIPERFSGSSSGGTATLTISGAQAEDDGDYYCQSADSSGNPVFGGGTHLTVL |  |  | 5% | 77.2 µg/mL | 6 µg/mL | 2.48 µg/mL | 6310 µg/mL | 25.7 µg/mL |  | fold reduction of affinity at pH 7.4 against the WT clone [1]: 2.5 fold; ratio between IC50 at pH5.5 and pH 7.4 [1]: 6.3; IC50 [3]: 9.86 µg/mL; IC50 [4]: 1.56 µg/mL
18E2His2-hIgG1-ABDEG (antibody, V domains shown) VH: QLQLVESGGGLVQPGGSLRLSCAASGFTFSSYVMHWVRQAPGKGLEWVSSIYHDGSHTYYADFVKGRFTISRDNAKNTLYLQMNSLKSEDTAVYYCASGTSYSGSYYYTDPFFGSWGQGTQVTVSS VL: NFMLTQPSALSVTLGQTARITCQGDRLGSRYIHWYQQKPPQAPVLVIHDDDRRPSGIPERFSGSSSGGTATLTISGAQAEDDGDYYCQSADSSGNPVFGGGTHLTVL | 4% | 4.3% | 4% | 26.6 µg/mL | 5.8 µg/mL | 1.49 µg/mL | 7320 µg/mL | 208 µg/mL |  | 
18E2VHHis-ABDEG (antibody, V domains shown) VH: QLQLVESGGGLVQPGGSLRLSCAASGFTFSSYVMHWVRQAPGKGLEWVSSIYHDGSHTYYADFVKGRFTISRDNAKNTLYLQMNSLKSEDTAVYYCASGTSYSGSYYYTDPFFGSWGQGTQVTVSS VL: NFMLTQPSALSVTLGQTARITCQGDRLGSRYIYWYQQKPPQAPVLVIHDDDRRPSGIPERFSGSSSGGTATLTISGAQAEDDGDYYCQSADSSGNPVFGGGTHLTVL | 3.5% | 4.8% |  |  |  |  |  |  |  | SI (Stimulation Index) at 20 µg/mL [2]: 1.4; SI (Stimulation Index) at 100 µg/mL [2]: 1.92

Continued, in another order:

% CD63+ basophils at 20 µg/mL [2] | % CD63+ basophils at 100 µg/mL [2] | % of activated basophils (CCR3+CD63+) [2] | IC50 [5] | IC50 [6] | IC50 [7] | IC50 [8] | IC50 [10] | Ratio OD450 pH 7.4/pH 6 [16] | Binder | also measured
 |  |  |  |  |  |  |  | 10.7 | CL-2C mAb 36 (antibody, V domains shown) VH: QVQLVQSGAEVMKPGSSVKVSCKASGYTFSWYWLEWVRQAPGHGLEWMGEIDPGTFTTHYNEKFKARVTFTADTSTSTAYMELSSLRSEDTAVYYCARFSHFSGSHYDYFDYWGQGTLVTVSS VL: EIVMTQSPATLSVSPGERATLSCRASQSIGTNIHWYQQKPGQAPRLLIYYASESISGIPARFSGSGSGTEFTLTISSLQSEDFAVYYCQQSWSWPTTFGGGTKVEIK | 
 |  |  |  |  |  |  |  | 1 | CL-2C mAb 40 (antibody, V domains shown) VH: QVQLVQSGAEVMKPGSSVKVSCKASGYTFSWYWLEWVRQAPGHGLEWMGEIDPGTFTTNYNEKFKARVTFTADTSTSTAYMELSSLRSEDTAVYYCARFSHFSGSNYDYFDYWGQGTLVTVSS VL: EIVMTQSPATLSVSPGERATLSCRASQSIGTNIHWYQQKPGQAPRLLIYYASESISGIPARFSGSGSGTEFTLTISSLQSEDFAVYYCQQSWSWPTTFGGGTKVEIK | 
 |  |  |  |  |  |  |  | 7.59 | CL-2C mAb 39 (antibody, V domains shown) VH: QVQLVQSGAEVMKPGSSVKVSCKASGYTFSWYHLEWVRQAPGHGLEWMGEIDPGTFTTNYNEKFKARVTFTADTSTSTAYMELSSLRSEDTAVYYCARFSHFSGHNYDYFDYWGQGTLVTVSS VL: EIVMTQSPATLSVSPGERATLSCRASQSIGTNIHWYQQKPGQAPRLLIYYASESISGIPARFSGSGSGTEFTLTISSLQSEDFAVYYCQQSWSWPTTFGGGTKVEIK | 
 |  |  |  |  |  |  |  | 4.48 | CL-2C mAb 38 (antibody, V domains shown) VH: QVQLVQSGAEVMKPGSSVKVSCKASGYTFSWYHLEWVRQAPGHGLEWMGEIDPGTFTTNYNEKFKARVTFTADTSTSTAYMELSSLRSEDTAVYYCARFSHFSGSHYDYFDYWGQGTLVTVSS VL: EIVMTQSPATLSVSPGERATLSCRASQSIGTNIHWYQQKPGQAPRLLIYYASESISGIPARFSGSGSGTEFTLTISSLQSEDFAVYYCQQSWSWPTTFGGGTKVEIK | 
